Measurements: US7220822

Biological target: CD80-Ig (extracellular domain of CD80 fused with the constant region of mouse IgG1 heavy chain) (mouse)
Experiment: SPR, CD28-Ig (187 nM to 12 µM) over CD80-Ig captured by anti-mouse IgG1 Fc

CD28-Ig (Fc fusion) showed a koff of 0.563 s⁻¹ and a kon of 138000 M⁻¹ s⁻¹.
